Consider one substance from US20170283830A1.

The experiment addresses CD117 (mast/stem cell growth factor receptor, proto-oncogene c-Kit protein) on CD117+ mouse bone marrow cells (mouse) (UniProt P05532). The experiment in a line: cell-based or functional assay.
UniProt P05532, sequence (P05532 25-979): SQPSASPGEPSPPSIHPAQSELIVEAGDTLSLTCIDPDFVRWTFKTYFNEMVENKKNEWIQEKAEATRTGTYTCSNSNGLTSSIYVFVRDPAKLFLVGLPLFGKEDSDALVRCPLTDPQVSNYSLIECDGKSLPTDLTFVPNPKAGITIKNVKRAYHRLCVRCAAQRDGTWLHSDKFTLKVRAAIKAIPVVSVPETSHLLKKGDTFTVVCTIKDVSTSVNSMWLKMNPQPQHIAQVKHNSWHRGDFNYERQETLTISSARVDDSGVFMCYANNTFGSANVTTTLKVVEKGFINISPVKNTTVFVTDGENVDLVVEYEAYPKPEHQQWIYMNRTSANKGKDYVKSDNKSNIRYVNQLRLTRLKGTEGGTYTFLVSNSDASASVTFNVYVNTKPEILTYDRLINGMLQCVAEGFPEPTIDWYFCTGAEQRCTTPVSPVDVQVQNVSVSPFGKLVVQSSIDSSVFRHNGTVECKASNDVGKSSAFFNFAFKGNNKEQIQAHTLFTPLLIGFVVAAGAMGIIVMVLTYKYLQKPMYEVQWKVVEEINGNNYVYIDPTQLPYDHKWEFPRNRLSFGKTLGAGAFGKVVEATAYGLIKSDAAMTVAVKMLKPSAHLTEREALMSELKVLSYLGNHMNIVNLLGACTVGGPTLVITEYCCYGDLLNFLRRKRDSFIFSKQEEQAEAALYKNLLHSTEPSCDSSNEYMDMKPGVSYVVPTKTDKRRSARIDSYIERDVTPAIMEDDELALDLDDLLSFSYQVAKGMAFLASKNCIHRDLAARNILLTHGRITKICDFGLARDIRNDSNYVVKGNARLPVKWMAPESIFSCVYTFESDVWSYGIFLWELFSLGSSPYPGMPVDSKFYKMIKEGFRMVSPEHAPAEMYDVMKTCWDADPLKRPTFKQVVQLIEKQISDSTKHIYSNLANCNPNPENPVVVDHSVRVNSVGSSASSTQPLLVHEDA

Turning to “Recombinant murine SCF, catalog #250-03, PeproTech (from UniProt P20826 26-189) (ligand)”, the HDR activity in CD117+ cells (recombination between reporter gene constructs) was found to be 2 fold and the γtcPNA4/donor DNA-mediated gene editing in CD117+ cells (% GFP expressing cells, flow cytometry) came to 15%.
